The record followed here is patent US20180360950A1 (published 2018).

For assay [1], the target named is T1, recombinant full-length DARC325 protein (UniProt Q16570 1-325).
T1 chain: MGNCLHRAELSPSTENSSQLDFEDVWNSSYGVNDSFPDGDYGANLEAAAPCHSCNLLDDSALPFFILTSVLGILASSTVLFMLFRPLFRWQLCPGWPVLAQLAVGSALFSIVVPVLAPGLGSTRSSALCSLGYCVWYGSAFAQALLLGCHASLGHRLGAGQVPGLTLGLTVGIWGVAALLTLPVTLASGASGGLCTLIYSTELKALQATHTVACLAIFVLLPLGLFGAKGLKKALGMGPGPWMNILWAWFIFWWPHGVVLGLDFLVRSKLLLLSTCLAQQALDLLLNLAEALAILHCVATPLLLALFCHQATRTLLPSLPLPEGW
The assay can be described thus: SPR. (In general: Surface plasmon resonance follows binding to a sensor surface in real time, without labels.)

For assay [2], the target named is recombinant full-length VAR2CSA (3D7-DBL1X-6ε) (Plasmodium falciparum (3D7)). Put plainly: SPR.

B1: DARCVHH (VHH)
VHH: QVQLQESGGGSVQAGGSLRLSCAASGYAFSSYCMAWFRQVPGKEREGVASINSDGERRGYADSVKGRFTVSRDNAKNTVYLQMNSLKPEDTAIYYCAAKRVVGGRYCGGGVSSWGQGTQVTVSS
Regarding B1, in assay [1], the Kd (as a rule, a measure of binding affinity in units of concentration) came out at 90 pM.

B2: DARCVHH-EBV P18F4 (VHH)
VHH: QVQLQESGGGSVQAGGSLRLSCAASGYAFSSYCMAWFRQVPGKEREGVASINSDGERRGYADSVKGRFTVSRDNAKNTVYLQMNSLKPEDTAIYYCAAKRVVGGRYCGGGVSSWGQGTQVTVSS
Consider B2, for which, in assay [1], the Kd turned out to be 56.5 pM.

B3: VAR2CSAVHH (VHH)
VHH: QVQLQESGGGLVQAGGSLRLSCAFSGSIFKMGWFRQAPGKEREFVAAIRWSGGSTYYADSVKGRFTISRDNAKNTVYLQMDSLKPEDTAVYYCAATWDLAGWNTVDEYDYWGQGTQVTVSS
For B3, in assay [2], the Kd is 486 pM.
